From patent publication US20240409637A1 (Regeneron, published 2024)

Experiments:
[1] = molecular target: human CD8 alpha and beta subunit on JRT3.T3/AP1-Luc/CD28/CD8AB/1G4AB clone 18 reporter T cells (human, UniProt P01732 22-235; P10966 22-210); assay: cell-based or functional assay
[2] = molecular target: T1, human CD8 on cells (primary human CD8 positive T cells); T cells of mice expressing hCD8; human PBMC-derived … (human, UniProt P01732 22-235; P10966 22-210); assay: flow cytometry on primary human CD8 positive T cells, APC anti-mouse IgG secondary
T1 construct: This is native CD8 on cells
T1 sequence (P01732 22-235, chain 1 of 2): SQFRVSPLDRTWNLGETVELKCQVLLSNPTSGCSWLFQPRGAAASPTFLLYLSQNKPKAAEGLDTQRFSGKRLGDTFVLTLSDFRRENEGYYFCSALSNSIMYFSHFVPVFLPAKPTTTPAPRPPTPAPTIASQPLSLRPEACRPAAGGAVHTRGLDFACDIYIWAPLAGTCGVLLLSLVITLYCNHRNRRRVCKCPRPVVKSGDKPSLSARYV
T1 sequence (P10966 22-210, chain 2 of 2): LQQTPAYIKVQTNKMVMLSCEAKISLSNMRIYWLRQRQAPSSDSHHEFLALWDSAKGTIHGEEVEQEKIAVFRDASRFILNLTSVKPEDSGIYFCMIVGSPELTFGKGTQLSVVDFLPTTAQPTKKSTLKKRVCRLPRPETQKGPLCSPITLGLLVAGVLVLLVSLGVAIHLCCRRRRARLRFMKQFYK
Experimental: (§1) mAb1 and isotype control antibodies were 4 fold serially diluted in stain buffer (PBS containing 2% FBS) in either an 8-point titration for human CD8 positive T cells or 11 point titration for cynomolgus monkey T cells, starting at a concentration of 200 nM. A sample without primary antibody, stain buffer only, was also included as a control. Antibody titrations were plated out, 50 ul/well, into V-bottom microplates. Primary human and cynomolgus monkey T cells were stained for 15 minutes with LIVE/DEAD™ Fixable Violet Dead Cell Stain (Invitrogen) diluted 1:1000 in PBS. Cells were washed twice, and resuspended in PBS containing 2% FBS. To gate out CD4+ monkey T cells a CD4 antibody from BD Biosciences, that reacts with cynomolgus CD4+ T cells, was incubated with monkey T cells for 30 min on ice and cells were subsequently washed once with stain buffer. Human CD8 positive and monkey T cells in stain buffer were plated such that 50 ul of cell suspension, containing approximately 150,000 T cells, were added into wells of the 96-well V-bottom microplate containing the titrated antibodies. […] Samples were analyzed with the FlowJo10 software such that only viable, CD8 positive, single cells were evaluated for antibody binding.

[3] = molecular target: T2, cynomolgus monkey CD8 on cynomolgus monkey T cells (cynomolgus monkey); assay: flow cytometry (geometric MFI of APC, secondary APC goat anti-mouse IgG) on cynomolgus monkey T cells gated on CD8 positive cells; four-parameter fit; unit taken from the axis 'Concentration of Antibody Log (M)' [panel Cynomolgus Monkey T-cells, table under the plot]
Experimental: as §1

[4] = molecular target: T2, cynomolgus monkey CD8 on cynomolgus …; assay: flow cytometry on cynomolgus monkey T cells (CD4+ gated out), APC anti-mouse IgG secondary
Experimental: as §1

[5] = molecular target: T2, cynomolgus monkey CD8 on cynomolgus …; assay: flow cytometry on cynomolgus monkey T cells
Experimental: as §1

[6] = molecular target: T1, human CD8 on cells (primary human CD8 …); assay: flow cytometry on primary human CD8 positive T cells
Experimental: Recombinant human IL-2 (50 IU/ml) was supplemented into culture media 72 hours post CD3/CD28 Dynabead incubation. When cells had expanded to the necessary cell number for flow cytometry analysis, the Dynabeads were removed by magnetic separation and cells were immediately used to determine the binding of CD8 antibodies or isotype controls.
as §1, with “buffer.” for “buffer. Human CD8 positive and monkey T cells in stain buffer were plated such that 50 ul of cell suspension, containing approximately 150,000 T cells, were added into wells of the 96-well V-bottom microplate containing the titrated antibodies.”

[7] = molecular target: T1, human CD8 on cells (primary human CD8 …); assay: flow cytometry (geometric MFI of APC, secondary APC goat anti-mouse IgG) on primary human CD8 positive T cells; four-parameter fit; unit taken from the axis 'Concentration of Antibody Log (M)' [panel Human CD8+ T-cells, table under the plot]
Experimental: as §1

[8] = molecular target: T3, hCD8α with a C-terminal myc-myc-polyhistidine tag (hCD8α.mmh, REGN3940) (human, UniProt P01732 22-182); assay: SPR (Sierra Sensors MASS-1), mAb captured by anti-mouse Fc, hCD8α.mmh as analyte, 25°C
T3 construct: not shown: C-terminal myc-myc-polyhistidine tag
T3 sequence (P01732 22-182 limits assumed): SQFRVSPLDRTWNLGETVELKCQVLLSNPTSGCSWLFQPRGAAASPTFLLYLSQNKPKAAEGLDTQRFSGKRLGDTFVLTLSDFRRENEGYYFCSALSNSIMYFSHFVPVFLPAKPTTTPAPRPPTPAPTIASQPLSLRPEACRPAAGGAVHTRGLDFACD
Experimental: Equilibrium dissociation constants (KD values) for hCD8α.mmh binding to purified anti-CD8 mAbs were determined using a real-time surface plasmon resonance biosensor using a Sierra Sensors MASS-1 high-capacity amine sensor surface was derivatized by amine coupling with a polyclonal goat anti-mouse Fc antibody (GE, #BR-1008-38) to capture purified anti-CD8 mAbs. SPR binding studies were performed in a buffer composed of 0.01M HEPES pH 7.4, 0.15M NaCl, 3 mM EDTA, 0.05% v/v Surfactant P20 (HBS-ET running buffer). Different concentrations of hCD8α with a C-terminal myc-myc-polyhistidine tag (hCD8α.mmh, REGN3940) prepared in HBS-ET running buffer (ranging from 300 nM to 3.7 nM, 3-fold dilutions) were injected over the anti-CD8 mAb captured surface at a flow rate of 50 μL/minute. Association of hCD8α.mmh to the captured monoclonal antibody was monitored for 4 minutes and the dissociation of hCD8α.mmh in HBS-ET running buffer was monitored for 10 minutes. All of the binding kinetics experiments were performed at 25° C. Kinetic association (kₐ) and dissociation (kd) rate constants were determined by fitting the real-time sensorgrams to a 1:1 binding model using Scrubber 2.0c curve fitting software. Binding dissociation equilibrium constants (KD) and dissociative half-lives (t½) were calculated from the kinetic rate constants as: […]

Chain of human CD8 alpha and beta subunit on JRT3.T3/AP1-Luc/CD28/CD8AB/1G4AB clone 18 reporter T cells (P01732 22-235, chain 1 of 2): as the sequence (P01732 22-235, chain 1 of 2) above
Chain of human CD8 alpha and beta subunit on JRT3.T3/AP1-Luc/CD28/CD8AB/1G4AB clone 18 reporter T cells (P10966 22-210, chain 2 of 2): as the sequence (P10966 22-210, chain 2 of 2) above

- IC50 [M], reduction of AP1-luciferase activity in CD8 T cell/APC luciferase assay [1]: 1.2e-09 M
- EC50 [2]: 0.37 nM
- EC50 [3]: 0.329 nM
- EC50 [4]: 0.33 nM
- Fold Change (MFI compared to isotype control at 25 nM) [5]: 1480 fold
- Fold Change (MFI compared to isotype control antibody at 25 nM) [6]: 2780 fold
- EC50 [7]: 0.369 nM
- Kd [8]: 32.6 nM
- koff [8]: 0.00519 s⁻¹
- kon [8]: 159000 M⁻¹ s⁻¹
- t1/2 [8]: 2.2 min
B1: mAb1 (anti-CD8 monoclonal antibody) (antibody, V domains shown)
VH: QVQLVESGGGVDQPGRSLRLSCAASGFIFSNYGIHWVRQAPGKGLEWVAVIWYDGSNKYFEDSVKGRFNISRDNSKNIVYLQMNSLRAEDTAVYFCARSYDMLTGSGDYYGLDVWGQGTTVTVSS
VL: DIQMTQSPSSLSASVGDRVTITCRASQDITNYLAWFQQKPGKAPKSLIYGASSLQSGVPSKFSGSGSGTDFTLTISSLQPEDFATYYCQQYNNYPLTFGGGTKVEIK
notes: It was captured by anti-mouse Fc in SPR and detected with anti-mouse IgG in flow cytometry; It is tied here because mAb1 is the only exemplary antibody; also called H2aM25428N; mAb1-L1
